T1: Human PAR-2 on cells (human, UniProt P55085 26-397)
T1 sequence: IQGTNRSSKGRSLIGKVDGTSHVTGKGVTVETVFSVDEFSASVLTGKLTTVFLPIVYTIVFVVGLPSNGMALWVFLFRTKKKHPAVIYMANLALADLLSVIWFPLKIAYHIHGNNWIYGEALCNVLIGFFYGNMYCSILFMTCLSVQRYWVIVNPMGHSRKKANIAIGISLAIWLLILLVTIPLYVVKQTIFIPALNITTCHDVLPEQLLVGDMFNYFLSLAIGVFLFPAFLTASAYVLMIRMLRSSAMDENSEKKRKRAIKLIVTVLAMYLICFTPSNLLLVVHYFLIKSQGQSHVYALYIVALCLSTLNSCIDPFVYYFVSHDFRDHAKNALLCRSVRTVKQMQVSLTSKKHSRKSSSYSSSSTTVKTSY

T2: FLAG-tagged PAR-2 over-expressed on HEK transfectants (Homo sapiens (Human), UniProt P55085 37-397)
T2 sequence: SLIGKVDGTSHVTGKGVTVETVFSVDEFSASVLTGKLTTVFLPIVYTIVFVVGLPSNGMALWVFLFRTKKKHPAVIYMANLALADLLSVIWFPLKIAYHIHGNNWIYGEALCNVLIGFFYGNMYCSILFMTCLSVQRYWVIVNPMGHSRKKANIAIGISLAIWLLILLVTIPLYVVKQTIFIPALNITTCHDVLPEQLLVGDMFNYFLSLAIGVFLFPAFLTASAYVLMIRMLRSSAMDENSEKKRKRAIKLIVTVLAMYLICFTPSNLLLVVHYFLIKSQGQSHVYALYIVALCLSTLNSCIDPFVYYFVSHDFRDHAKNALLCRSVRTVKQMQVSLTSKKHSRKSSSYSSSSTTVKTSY

B1: Ab4994 IgG4_Pro (antibody, V domains shown)
VH: QVQLVESGGGLVQPGGSLRLSCAASGFTFSSYAMNWVRQAPGKGLEWVSAISYSGHLTGYADSVKGRFTISRDNSKNTLYLQMNSLRAEDTAVYYCARIQNDPMDVWGQGTLVTVSS
VL: DIELTQPPSVSVAPGQTARISCSGDNLGKKYVQWYQQKPGQAPVLVIYDDSNRPSGIPERFSGSNSGNTATLTISGTQAEDEADYYCSSWDVGSDGWVFGGGTKLTVLG
notes: IgG4_Pro: variable regions fused to human IgG4 constant regions with Ser241Pro in the hinge, lambda light chain; also called IgG4p Ab4994
B2: Ab5007 IgG4_Pro (antibody, V domains shown)
VH: QVQLVESGGGLVQPGGSLRLSCAASGFTFSSYAMNWVRQAPGKGLEWVSAISFSGHLTGYADSVKGRFTISRDNSKNTLYLQMNSLRAEDTAVYYCARIQNDPMDVWGQGTLVTVSS
VL: DIELTQPPSVSVAPGQTARISCSGDNLGKKYVQWYQQKPGQAPVLVIYDDSNRPSGIPERFSGSNSGNTATLTISGTQAEDEADYYCSSWDVGSDGWVFGGGTKLTVLG
notes: IgG4_Pro (human IgG4 constant regions, Ser241Pro hinge), lambda; also called IgG4p Ab5007
B3: Ab5150 IgG4_Pro (cross-cloned: light chain of Ab4999 with heavy chain of Ab5003) (antibody, V domains shown)
VH: QVQLVESGGGLVQPGGSLRLSCAASGFTFSSYAMNWVRQAPGKGLEWVSAISYKGHLTGYADSVKGRFTISRDNSKNTLYLQMNSLRAEDTAVYYCARIQNDPMDVWGQGTLVTVSS
VL: DIELTQPPSVSVAPGQTARISCSGDNLGKKYVQWYQQKPGQAPVLVIYDDSNRPSGIPERFSGSNSGNTATLTISGTQAEDEADYYCQTWDYSSIRDETNVFGGGTKLTVLG
notes: IgG4_Pro format
B4: Ab5005 IgG4_Pro (antibody, V domains shown)
VH: QVQLVESGGGLVQPGGSLRLSCAASGFTFSSYAMNWVRQAPGKGLEWVSTISYSSSATSYADSVKGRFTISRDNSKNTLYLQMNSLRAEDTAVYYCARIQNDPMDVWGQGTLVTVSS
VL: DIELTQPPSVSVAPGQTARISCSGDNLGKKYVQWYQQKPGQAPVLVIYDDSNRPSGIPERFSGSNSGNTATLTISGTQAEDEADYYCQSWALVGSSESNVFGGGTKLTVLG
notes: IgG4_Pro (human IgG4 constant regions, Ser241Pro hinge), lambda; also called IgG4p Ab5005
B5: Ab5149 IgG4_Pro (cross-cloned: light chain of Ab4999 with heavy chain of Ab4997) (antibody, V domains shown)
VH: QVQLVESGGGLVQPGGSLRLSCAASGFTFSSYAMNWVRQAPGKGLEWVSAISYNGKLKGYADSVKGRFTISRDNSKNTLYLQMNSLRAEDTAVYYCARIQNDPMDVWGQGTLVTVSS
VL: DIELTQPPSVSVAPGQTARISCSGDNLGKKYVQWYQQKPGQAPVLVIYDDSNRPSGIPERFSGSNSGNTATLTISGTQAEDEADYYCQTWDYSSIRDETNVFGGGTKLTVLG
notes: IgG4_Pro format
B6: Ab5003 IgG4_Pro (antibody, V domains shown)
VH: QVQLVESGGGLVQPGGSLRLSCAASGFTFSSYAMNWVRQAPGKGLEWVSAISYKGHLTGYADSVKGRFTISRDNSKNTLYLQMNSLRAEDTAVYYCARIQNDPMDVWGQGTLVTVSS
VL: DIELTQPPSVSVAPGQTARISCSGDNLGKKYVQWYQQKPGQAPVLVIYDDSNRPSGIPERFSGSNSGNTATLTISGTQAEDEADYYCSSWDVGSDGWVFGGGTKLTVLG
notes: IgG4_Pro (human IgG4 constant regions, Ser241Pro hinge), lambda; also called IgG4p Ab5003
B7: Ab4997 IgG4_Pro (antibody, V domains shown)
VH: QVQLVESGGGLVQPGGSLRLSCAASGFTFSSYAMNWVRQAPGKGLEWVSAISYNGKLKGYADSVKGRFTISRDNSKNTLYLQMNSLRAEDTAVYYCARIQNDPMDVWGQGTLVTVSS
VL: DIELTQPPSVSVAPGQTARISCSGDNLGKKYVQWYQQKPGQAPVLVIYDDSNRPSGIPERFSGSNSGNTATLTISGTQAEDEADYYCSSWDVGSDGWVFGGGTKLTVLG
notes: IgG4_Pro (human IgG4 constant regions, Ser241Pro hinge), lambda; also called IgG4p Ab4997

Key:
[1] = target: T1, Human PAR-2 on cells; test: cell-based or functional assay
[2] = target: T2, FLAG-tagged PAR-2 over-expressed on HEK …; test: cell-based or functional assay
[3] = target: labeled peptide representing the N-terminus of PAR-2 (FRET assay); test: cell-based or functional assay
[4] = target: T1, Human PAR-2 on cells; test: cell binding of IgG4_Pro, HEK-PAR-2 (#3)
[5] = target: T1, Human PAR-2 on cells; test: binding of IgG4p to PAR-2 transfected HEK cells (HEK-PAR-2 #3)

Row | Binder | FLIPR A549 cells IC50 [1] [nM] | FLAG Cell-Based Cleavage Approx. IC50 [2] [nM] | FRET Peptide Cleavage IC50 [3] [nM] | EC50 [4] [nM] | EC50 [5] [nM]
1 | B1 | 2.2 | < 1 | < 30 | 0.4 | 0.4
2 | B2 | 3.7 | < 1 | < 30 | 0.5 | 0.5
3 | B3 | 2.3 | < 1 | < 30 | 0.3 | 
4 | B4 | 2.5 | < 1 | < 30 | 0.1 | 0.06
5 | B5 | 3.3 | < 1 | < 30 | 0.7 | 
6 | B6 | 2.3 | < 1 | < 30 | 0.5 | 0.46
7 | B7 | 2.4 | < 1 | < 30 | 0.4 | 0.38

Reference: patent US20100119506A1 (published 2010)
